Measurements as given in patent publication US20220259593A1, “CONTROL OF MAMMALIAN GENE DOSAGE USING CRISPR” (The Regents of the University of California, priority 2019, published 2022).

Test system: K562 CRISPRi cells
Test: Constant region variant library pooled growth screen, K562
Assay type: cell-based, human
Outline: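 Pooled library transduced into K562 CRISPRi cells in duplicate, puromycin-selected, grown at >2000× coverage and sampled after 4 to 8 days. Phenotypes per targeting sequence:constant region pair were normalized to the unmodified-scaffold pairing to give relative activity.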

[1] = sgRNA constant region variant, activity relative to unmodified constant region cr995, mean CRISPRi activity

Molecule	Mean relative activity (sgRNA constant region variants, activity relative to the original, un-modified constant region cr995)	Mean relative activity [1]
cr628 (nucleic acid, listed as DNA, chemistry not fully specified) guide: GTTTAAGAGCTAAGCTGGAAACAGCATAGCAAGTTTAAATAAGGCTAGTCCGTTATCAACTTGAAAAAGTGGTACCAAGTTGGTACT	1.033	
cr337 (nucleic acid, listed as DNA, chemistry not fully specified) guide: GTTTAAGAGCTAAGCTGGAAACAGCATAGCAAGTTTAAATAACGCTAGTCGGTTATCAACTTGAGAAAGTGGCACCGAGTCGGTGCT		0.01313
cr111 (nucleic acid, listed as DNA, chemistry not fully specified) guide: GTTTAAGAGCTAAGCTGGAAACAGCATAGCAACTTTAAATAAGGCTAGTCCGTTATCAACTTGAAAAAGTGGCACAGAGTCTGTGCT		0.013
cr665 (nucleic acid, listed as DNA, chemistry not fully specified) guide: GTTTAAGAGCTAAGCTGGAAACAGCATAGCAACTTTAAATAAGGCTAGTCCGTTATCAACTTGAAAAAGTGCCACCGAGTCGGTGGT		0.01294
cr280 (nucleic acid, listed as DNA, chemistry not fully specified) guide: GTTTAAGAGCTAAGCTGGAAACAGCATAGCAACTTTAAATAAGGCTAGTCCGTTATCAACTTGAAAAAGTGTCACCGAGTCGGTGAT		0.01273
cr103 (nucleic acid, listed as DNA, chemistry not fully specified) guide: GTTTAAGAGCTAAGCTGGAAACAGCATAGCATGTTTAAATAAGGCTAGTCCTTTATCAACTTGAAAAAGTGGCACCGAGGCGGTGCT		0.01259
cr528 (nucleic acid, listed as DNA, chemistry not fully specified) guide: GTTTAAGAGCTAAGCTGGAAACAGCATAGCCGCTTTAAATAAGGCTAGTCCGTTATCAACTTGAAAAAGTGGCACCGAGTCGGTGCT		0.01243
cr204 (nucleic acid, listed as DNA, chemistry not fully specified) guide: GTTTAAGAGCTAAGCTGGAAACAGCATAGCAAGCTTAAATAAGTCTAGTACGTTATCAACTTGAAAAAGTGGCACCGAGTCGGTGCT		0.01236
cr079 (nucleic acid, listed as DNA, chemistry not fully specified) guide: GGTCAAGAGCTAAGCTGGAAACAGCATAGCAAGTTTAAATAAGGCTAGTCCGTTATCAACTTGAAAAAGTGGCACCGAGTCGGTGCT		0.01223
cr024 (nucleic acid, listed as DNA, chemistry not fully specified) guide: TTGTAAGAGCTAAGCTGGAAACAGCATAGCAAGTTTAAATAAGGCTAGTCCGTTATCAACTTGAAAAAGTGGCACCGAGTCGGTGCT		0.01205
cr268 (nucleic acid, listed as DNA, chemistry not fully specified) guide: GTTTAAGAGCTAAGCTGGAAACAGCATAGCAAGGTTAAATAAGGCTAGTCCGTTATCAACTTGAAAAAGTGGCACAGAGTCTGTGCT		0.01166
cr332 (nucleic acid, listed as DNA, chemistry not fully specified) guide: GTTTAAGAGCTAAGCTGGAAACAGCATAGCAATATTAAATAAGGCTAGTCCGTTATCAACTTGAAAAAGTGGCACCGAGTCGGTGCT		0.01145
